Laboratory results: patent CN113546252A

Biological target: 人PCSK9-D347Y (human) (UniProt Q8NBP7)
Assay: cell-based or functional assay

Row | Substance | 促LDL内吞 (HepG2细胞LDL摄取法) EC50
1 | JS002 (antibody) | 0.0927 µg/mL
2 | Evolocumab (antibody) | 0.151 µg/mL
